Data reported in publication PMC2952866 (Nucleic Acids Research, 2010).

B1: Mcm5 (natural protein)
chain: MSFDRPEIYSAPVLQGESPNDDDNTEIIKSFKNFILEFRLDSQFIYRDQLRNNILVKNYSLTVNMEHLIGYNEDIYKKLSDEPSDIIPLFETAITQVAKRISILSRAQSANNNDKDPENTSMDTDSLLLNSLPTFQLILNSNANQIPLRDLDSEHVSKIVRLSGIIISTSVLSSRATYLSIMCRNCRHTTSITINNFNSITGNTVSLPRSCLSTIESESSMANESNIGDESTKKNCGPDPYIIIHESSKFIDQQFLKLQEIPELVPVGEMPRNLTMTCDRYLTNKVIPGTRVTIVGIYSIYNSKNGAGSGRSGGGNGGSGVAIRTPYIKILGIQSDVETSSIWNSVTMFTEEEEEEFLQLSRNPKLYEILTNSIAPSIFGNEDIKKAIVCLLMGGSKKILPDGMRLRGDINVLLLGDPGTAKSQLLKFVEKVSPIAVYTSGKGSSAAGLTASVQRDPMTREFYLEGGAMVLADGGVVCIDEFDKMRDEDRVAIHEAMEQQTISIAKAGITTVLNSRTSVLAAANPIYGRYDDLKSPGDNIDFQTTILSRFDMIFIVKDDHNEERDISIANHVINIHTGNANAMQNQQEENGSEISIEKMKRYITYCRLKCAPRLSPQAAEKLSSNFVTIRKQLLINELESTERSSIPITIRQLEAIIRITESLAKLELSPIAQERHVDEAIRLFQASTMDAASQDPIGGLNQASGTSLSEIRRFEQELKRRLPIGWSTSYQTLRREFVDTHRFSQLALDKALYALEKHETIQLRHQGQNIYRSGV
B2: Mcm3 (natural protein)
chain: MEGSTGFDGDATTFFAPDAVFGDRVRRFQEFLDTFTSYRDSVRSIQVYNSNNAANYNDDQDDADERDLLGDDDGDDLEKEKKAASSTSLNILPHRIIISLDDLREFDRSFWSGILVEPAYFIPPAEKALTDLADSMDDVPHPNASAVSSRHPWKLSFKGSFGAHALSPRTLTAQHLNKLVSVEGIVTKTSLVRPKLIRSVHYAAKTGRFHYRDYTDATTTLTTRIPTPAIYPTEDTEGNKLTTEYGYSTFIDHQRITVQEMPEMAPAGQLPRSIDVILDDDLVDKTKPGDRVNVVGVFKSLGAGGMNQSNSNTLIGFKTLILGNTVYPLHARSTGVAARQMLTDFDIRNINKLSKKKDIFDILSQSLAPSIYGHDHIKKAILLMLMGGVEKNLENGSHLRGDINILMVGDPSTAKSQLLRFVLNTASLAIATTGRGSSGVGLTAAVTTDRETGERRLEAGAMVLADRGVVCIDEFDKMTDVDRVAIHEVMEQQTVTIAKAGIHTTLNARCSVIAAANPVFGQYDVNRDPHQNIALPDSLLSRFDLLFVVTDDINEIRDRSISEHVLRTHRYLPPGYLEGEPVRERLNLSLAVGEDADINPEEHSNSGAGVENEGEDDEDHVFEKFNPLLQAGAKLAKNKGNYNGTEIPKLVTIPFLRKYVQYAKERVIPQLTQEAINVIVKNYTDLRNDDNTKKSPITARTLETLIRLATAHAKVRLSKTVNKVDAKVAANLLRFALLGEDIGNDIDEEESEYEEALSKRSPQKSPKKRQRVRQPASNSGSPIKSTPRRSTASSVNATPSSARRILRFQDDEQNAGEDDNDIMSPLPADEEAELQRRLQLGLRVSPRRREHLHAPEEGSSGPLTEVGTPRLPNVSSAGQDDEQQQSVISFDNVEPGTISTGRLSLISGIIARLMQTEIFEEESYPVASLFERINEELPEEEKFSAQEYLAGLKIMSDRNNLMVADDKVWRV
B3: Mcm2 (natural protein)
chain: MSDNRRRRREEDDSDSENELPPSSPQQHFRGGMNPVSSPIGSPDMINPEGDDNEVDDVPDIDEVEEQMNEVDLMDDNMYEDYAADHNRDRYDPDQVDDREQQELSLSERRRIDAQLNERDRLLRNVAYIDDEDEEQEGAAQLDEMGLPVQRRRRRRQYEDLENSDDDLLSDMDIDPLREELTLESLSNVKANSYSEWITQPNVSRTIARELKSFLLEYTDETGRSVYGARIRTLGEMNSESLEVNYRHLAESKAILALFLAKCPEEMLKIFDLVAMEATELHYPDYARIHSEIHVRISDFPTIYSLRELRESNLSSLVRVTGVVTRRTGVFPQLKYVKFNCLKCGSILGPFFQDSNEEIRISFCTNCKSKGPFRVNGEKTVYRNYQRVTLQEAPGTVPPGRLPRHREVILLADLVDVSKPGEEVEVTGIYKNNYDGNLNAKNGFPVFATIIEANSIKRREGNTANEGEEGLDVFSWTEEEEREFRKISRDRGIIDKIISSMAPSIYGHRDIKTAVACSLFGGVPKNVNGKHSIRGDINVLLLGDPGTAKSQILKYVEKTAHRAVFATGQGASAVGLTASVRKDPITKEWTLEGGALVLADKGVCLIDEFDKMNDQDRTSIHEAMEQQSISISKAGIVTTLQARCSIIAAANPNGGRYNSTLPLAQNVSLTEPILSRFDILCVVRDLVDEEADERLATFVVDSHVRSHPENDEDREGEELKNNGESAIEQGEDEINEQLNARQRRLQRQRKKEEEISPIPQELLMKYIHYARTKIYPKLHQMDMDKVSRVYADLRRESISTGSFPITVRHLESILRIAESFAKMRLSEFVSSYDLDRAIKVVVDSFVDAQKVSVRRQLRRSFAIYTLGH

Assays:
Experiment in all cases: SEC + co-IP
Mcm6 = Mcm6 (Saccharomyces cerevisiae, UniProt P53091 1-1017)
Chain of Mcm6 (P53091 whole entry): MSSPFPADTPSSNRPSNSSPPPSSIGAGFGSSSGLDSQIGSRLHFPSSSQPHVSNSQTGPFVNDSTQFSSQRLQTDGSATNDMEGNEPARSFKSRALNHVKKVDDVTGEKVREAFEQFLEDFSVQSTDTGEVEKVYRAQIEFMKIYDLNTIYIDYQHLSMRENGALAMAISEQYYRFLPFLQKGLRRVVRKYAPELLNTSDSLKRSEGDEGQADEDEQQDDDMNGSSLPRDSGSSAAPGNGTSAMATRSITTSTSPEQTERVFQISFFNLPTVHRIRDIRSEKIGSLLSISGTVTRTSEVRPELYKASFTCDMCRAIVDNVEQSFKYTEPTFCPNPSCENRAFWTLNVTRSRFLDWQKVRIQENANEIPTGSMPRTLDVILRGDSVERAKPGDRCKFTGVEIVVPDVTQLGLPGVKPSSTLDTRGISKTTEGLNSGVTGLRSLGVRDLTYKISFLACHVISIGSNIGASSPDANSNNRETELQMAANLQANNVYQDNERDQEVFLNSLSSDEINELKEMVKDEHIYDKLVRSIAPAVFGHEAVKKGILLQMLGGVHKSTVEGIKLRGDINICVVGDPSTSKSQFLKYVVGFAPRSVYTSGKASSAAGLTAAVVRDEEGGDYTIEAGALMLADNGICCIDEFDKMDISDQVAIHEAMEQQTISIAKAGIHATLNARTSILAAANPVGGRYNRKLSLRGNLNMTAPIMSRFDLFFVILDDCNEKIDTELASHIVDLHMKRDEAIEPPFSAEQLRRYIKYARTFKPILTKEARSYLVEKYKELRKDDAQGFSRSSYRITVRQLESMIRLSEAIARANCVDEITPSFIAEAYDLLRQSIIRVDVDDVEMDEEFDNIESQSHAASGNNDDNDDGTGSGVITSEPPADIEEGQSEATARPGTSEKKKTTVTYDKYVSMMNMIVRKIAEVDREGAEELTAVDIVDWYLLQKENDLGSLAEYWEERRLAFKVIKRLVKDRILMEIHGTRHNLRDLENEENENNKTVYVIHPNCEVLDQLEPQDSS

Mcm7 = target: T1, Mcm7 (Saccharomyces cerevisiae, UniProt P38132 1-845)
T1 sequence: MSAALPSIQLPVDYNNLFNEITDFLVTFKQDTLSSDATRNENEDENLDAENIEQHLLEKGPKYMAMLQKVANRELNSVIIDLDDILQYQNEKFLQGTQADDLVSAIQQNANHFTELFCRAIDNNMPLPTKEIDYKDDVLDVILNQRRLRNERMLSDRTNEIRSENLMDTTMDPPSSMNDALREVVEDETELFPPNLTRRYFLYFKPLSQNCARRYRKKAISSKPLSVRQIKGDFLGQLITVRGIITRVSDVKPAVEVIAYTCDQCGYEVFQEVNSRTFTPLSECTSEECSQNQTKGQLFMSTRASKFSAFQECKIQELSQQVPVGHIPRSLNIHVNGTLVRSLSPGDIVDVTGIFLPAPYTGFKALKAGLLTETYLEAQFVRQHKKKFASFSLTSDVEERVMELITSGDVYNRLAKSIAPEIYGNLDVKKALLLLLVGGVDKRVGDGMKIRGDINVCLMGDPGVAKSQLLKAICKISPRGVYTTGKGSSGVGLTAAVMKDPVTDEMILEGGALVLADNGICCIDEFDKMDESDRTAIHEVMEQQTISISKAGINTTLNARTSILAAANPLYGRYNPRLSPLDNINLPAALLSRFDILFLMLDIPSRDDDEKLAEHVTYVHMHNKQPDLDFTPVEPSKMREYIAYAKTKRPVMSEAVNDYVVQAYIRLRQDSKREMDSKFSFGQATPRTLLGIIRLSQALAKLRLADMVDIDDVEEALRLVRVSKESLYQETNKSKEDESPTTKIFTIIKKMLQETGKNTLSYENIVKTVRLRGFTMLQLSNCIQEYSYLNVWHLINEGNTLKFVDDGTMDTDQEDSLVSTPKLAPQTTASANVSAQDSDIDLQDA

Mcm3 = target: B2
Mcm4 = target: T2, Mcm4 (Saccharomyces cerevisiae, UniProt P30665 1-933)
T2 sequence: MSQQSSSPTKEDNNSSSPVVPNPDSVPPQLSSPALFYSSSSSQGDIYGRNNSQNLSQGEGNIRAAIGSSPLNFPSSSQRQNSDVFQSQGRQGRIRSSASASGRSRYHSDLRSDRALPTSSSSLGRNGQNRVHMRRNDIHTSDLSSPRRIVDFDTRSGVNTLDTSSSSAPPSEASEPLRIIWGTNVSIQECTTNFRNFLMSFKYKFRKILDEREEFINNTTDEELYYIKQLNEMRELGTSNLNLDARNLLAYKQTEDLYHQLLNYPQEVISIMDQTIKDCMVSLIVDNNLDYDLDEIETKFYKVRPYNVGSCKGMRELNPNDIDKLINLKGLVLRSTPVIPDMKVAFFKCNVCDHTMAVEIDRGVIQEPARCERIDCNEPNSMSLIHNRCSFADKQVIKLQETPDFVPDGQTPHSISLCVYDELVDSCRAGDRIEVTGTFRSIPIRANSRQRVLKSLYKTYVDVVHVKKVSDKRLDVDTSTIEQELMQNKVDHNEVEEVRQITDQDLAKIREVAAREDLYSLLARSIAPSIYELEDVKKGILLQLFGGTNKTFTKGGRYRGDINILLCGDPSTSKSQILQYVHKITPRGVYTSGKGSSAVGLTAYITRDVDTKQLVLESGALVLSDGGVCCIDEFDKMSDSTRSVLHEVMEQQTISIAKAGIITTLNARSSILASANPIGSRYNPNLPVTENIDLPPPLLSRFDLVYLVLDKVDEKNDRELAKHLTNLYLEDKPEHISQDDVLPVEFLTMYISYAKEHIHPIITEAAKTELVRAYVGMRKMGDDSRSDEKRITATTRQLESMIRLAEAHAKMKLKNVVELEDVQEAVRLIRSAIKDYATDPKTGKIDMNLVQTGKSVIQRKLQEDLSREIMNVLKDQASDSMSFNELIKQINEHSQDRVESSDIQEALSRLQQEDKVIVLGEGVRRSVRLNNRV

Binder	binding result (Mcm6)	binding result (Mcm7)	binding result (Mcm3)	binding result (Mcm4)
B1	binds	binds	–	–
B2	binds	–	–	–
B3	–	–	binds	binds
